Experiment [1] deals with T1, activin A (Homo sapiens, UniProt P08476).
T1 sequence (P08476 311-426): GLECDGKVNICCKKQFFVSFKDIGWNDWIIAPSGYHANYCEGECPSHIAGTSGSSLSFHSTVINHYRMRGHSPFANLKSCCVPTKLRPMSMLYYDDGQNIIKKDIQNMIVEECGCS
Briefly: Biacore-based binding assay, receptor captured with anti-Fc antibody. As for the experimental part:
(§1) A Biacore™-based binding assay was used to compare ligand binding selectivity of the ALK4-Fc:ActRIIB-Fc heterodimeric complex described above with that of ActRIIB-Fc and ALK4-Fc homodimer complexes. The ALK4-Fc:ActRIIB-Fc heterodimer, ActRIIB-Fc homodimer, and ALK4-Fc homodimer were independently captured onto the system using an anti-Fc antibody. Ligands were injected and allowed to flow over the captured receptor protein. Results are summarized in the table below, in which ligand off-rates (kd) most indicative of effective ligand traps are denoted in bold font.
Background: Surface plasmon resonance follows binding to a sensor surface in real time, without labels.

The next experiment deals with T2, activin B (Homo sapiens, UniProt P09529).
T2 sequence (P09529 293-407): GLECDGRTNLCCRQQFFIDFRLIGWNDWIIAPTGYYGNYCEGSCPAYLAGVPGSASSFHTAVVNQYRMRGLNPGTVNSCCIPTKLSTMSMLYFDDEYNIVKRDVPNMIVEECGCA
Described as above. As to the method: as §1

The target in experiment [2] is T3, GDF11 (Homo sapiens, UniProt O95390).
T3 sequence (O95390 299-407): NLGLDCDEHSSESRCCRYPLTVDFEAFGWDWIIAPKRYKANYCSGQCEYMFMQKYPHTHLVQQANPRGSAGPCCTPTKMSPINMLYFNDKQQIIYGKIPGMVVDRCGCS
The experiment is described as above. As to the method: as §1

The target of experiment [3] is T4, GDF8 (Homo sapiens, UniProt O14793).
T4 sequence (O14793 267-375): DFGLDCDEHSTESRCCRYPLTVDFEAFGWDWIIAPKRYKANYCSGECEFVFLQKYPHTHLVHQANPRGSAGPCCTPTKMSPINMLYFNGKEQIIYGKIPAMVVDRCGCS
Described as above. As to the method:
as §1

For experiment [4], the target named is T3, GDF11. Description: ActRIIB-Fc affinity for ligand (description). Format: binding. The settings on record: ascertained by Applicants.
A further experiment has as its system activin. Description: ActRIIB-Fc affinity for ligand (description). The following applies: ascertained by Applicants. Format: binding.
In experiment [5] the target is T1, activin A. Briefly: Biacore assay, receptor captured with anti-hFc antibody. It is filed as binding. As to the method:
(§2) Binding of certain ActRIIB-Fc proteins and GDF traps to ligands was tested in a Biacore assay.
(§3) The ActRIIB-Fc variants or wild-type protein were captured onto the system using an anti-hFc antibody. Ligands were injected and flowed over the captured receptor proteins.

Experiment [6] concerns the target T3, GDF11. The experiment is described as above. It is filed as binding. As to the method:
as §2, §3

In experiment [7] the target is T4, GDF8. Described as above. Format: binding. As for the experimental part:
as §2, §3

Numbering of substitutions follows the chain as printed. Names and notes keep the numbering of the source.

B1: ALK4-Fc homodimer: homodimer complex of ALK4-Fc fusion polypeptide (protein)
chain: SGPRGVQALLCACTSCLQANYTCETDGACMVSIFNLDGMEHHVRTCIPKVELVPAGKPFYCLSSEDLRNTHCCYTDYCNRIDLRVPSGHLKEPEHPSMWGPVE
modifications: left off: a dimerising Fc or GST
notes: homodimer complex of ALK4-Fc fusion polypeptide
For B1, in the experiment with activin A [1], the “ka, Activin A” value turned out to be 580000 M⁻¹ s⁻¹ and the “kd, Activin A” value stood at 0.012 s⁻¹. In addition, in the experiment with activin B, the “KD, Activin B” value was “No binding”. Further, in the experiment with GDF11 [2], the “ka, GDF11” value is 4.8e+06 M⁻¹ s⁻¹ and the “kd, GDF11” value was 0.0048 s⁻¹. Moreover, in the experiment with GDF8 [3], the “ka, GDF8” value was 130000 M⁻¹ s⁻¹ and the “kd, GDF8” value was 0.0019 s⁻¹.

B2: A64 20-134: ActRIIB-Fc, amino acids 20-134 of SEQ ID NO: 1 with alanine at position 64 (protein)
chain: GRGEAETRECIYYNANWELERTNQSGLERCEGEQDKRLHCYASWANSSGTIELVKKGCWLDDFNCYDRQECVATEENPQVYFCCCEGNFCNERFTHLPEAGGPEVTYEPPPTAPT
modifications: Fc fusion partner without entry
Consider B2, for which the “affinity for GDF11” value with GDF11 [4] was “relatively low affinity”. The affinity for activin entry with activin is given as “relatively low affinity”.

B3: ActRIIB(L79D 20-134)-hFc: GDF trap: ActRIIB amino acids 20-134 with L79D substitution fused to human Fc (SEQ ID NO: 46) (protein)
chain: GRGEAETRECIYYNANWELERTNQSGLERCEGEQDKRLHCYASWRNSSGTIELVKKGCWDDDFNCYDRQECVATEENPQVYFCCCEGNFCNERFTHLPEAGGPEVTYEPPPTAPTGGGTHTCPPCPAPELLGGPSVFLFPPKPKDTLMISRTPEVTCVVVDVSHEDPEVKFNWYVDGVEVHNAKTKPREEQYNSTYRVVSVLTVLHQDWLNGKEYKCKVSNKALPVPIEKTISKAKGQPREPQVYTLPPSREEMTKNQVSLTCLVKGFYPSDIAVEWESNGQPENNYKTTPPVLDSDGSFFLYSKLTVDKSRWQQGNVFSCSVMHEALHNHYTQKSLSLSPGK
Turning to B3, in the experiment with activin A [5], the “KD, Activin A” value is “Low binding”. The “Koff, GDF11” value in the experiment with GDF11 [6] came to 0.000439 s⁻¹. Besides, the “Koff, GDF8” value with GDF8 [7] worked out at 0.00083 s⁻¹.

B4: ActRIIB(R64K 20-134)-hFc: ActRIIB(20-134)-hFc variant with R64K mutation (protein)
chain: B3 chain with R45K, D60L
With B4, in the experiment with activin A [5], the “Koff, Activin A” value worked out at 0.000325 s⁻¹ and the “Kon, Activin A” value was 6.82e+06 M⁻¹ s⁻¹. Besides, in the experiment with GDF11 [6], the “Koff, GDF11” value was determined as 2.41e-05 s⁻¹. In the experiment with GDF8 [7], the “Koff, GDF8” value is 4.71e-05 s⁻¹.

B5: ActRIIB(A24N 20-134)-hFc: ActRIIB(20-134)-hFc variant with A24N mutation (protein)
chain: B3 chain with A5N, D60L
Take B5: in the experiment with activin A [5], the “Koff, Activin A” value was found to be 0.000346 s⁻¹ and the “Kon, Activin A” value is 3.34e+06 M⁻¹ s⁻¹. Further, the “Koff, GDF11” value in the experiment with GDF11 [6] came to 6.35e-05 s⁻¹.

B6: ActRIIB(L79E 20-134)-hFc: GDF trap form with a glutamate rather than an aspartate at position 79, human Fc fusion (protein)
chain: B3 chain with D60E
As to B6, in the experiment with activin A [5], the “KD, Activin A” value is “Low binding”. In addition, the “Koff, GDF11” value with GDF11 [6] amounted to 0.000274 s⁻¹. Further, in the experiment with GDF8 [7], the “Koff, GDF8” value stood at 0.0009 s⁻¹.

B7: ActRIIB(P129S, P130R 20-134)-hFc: ActRIIB(20-134)-hFc variant with P129S and P130R mutations (protein)
chain: B3 chain with D60L, P110S, P111R
For B7, in the experiment with activin A [5], the “Koff, Activin A” value turned out to be 0.000417 s⁻¹ and the “Kon, Activin A” value stood at 5.02e+06 M⁻¹ s⁻¹. Further, the “Koff, GDF8” value with GDF8 [7] turned out to be 0.00018 s⁻¹.

(Values after patent publication US10973880B2, “Compositions and methods for treating pulmonary hypertension” (Acceleron Pharma Inc., priority 2016, dated 2021).)
